In article PMC10707181, “Neuronal Scaffold Protein ARMS Interacts with Synaptotagmin-4 C2AB through the Ankyrin Repeat Domain with an Unexpected Mode” (International Journal of Molecular Sciences, 2023):

Key:
[1] = molecular target: T1, ARMS protein N-terminal region (NT, residues 1–455) (rat, UniProt Q9EQG6 1-455); experiment: ITC; ARMS proteins (200 μM) in the syringe, Syt4 proteins (20 μM) in the cell; 25 °C; 50 mM Tris, 100 mM NaCl, 1 mM EDTA, 1 mM DTT, pH 7.8; one-site binding model; conditions: both partners purified
T1 construct: ARMS (Kidins220), rat, UniProt Q9EQG6, residues 1-455: N-terminal region with the entire ankyrin repeat domain; also called ARMS NT; Kidins220 NT; source: E. coli BL21 (DE3), purified (Ni-NTA, size-exclusion chromatography)
T1 sequence (looked up): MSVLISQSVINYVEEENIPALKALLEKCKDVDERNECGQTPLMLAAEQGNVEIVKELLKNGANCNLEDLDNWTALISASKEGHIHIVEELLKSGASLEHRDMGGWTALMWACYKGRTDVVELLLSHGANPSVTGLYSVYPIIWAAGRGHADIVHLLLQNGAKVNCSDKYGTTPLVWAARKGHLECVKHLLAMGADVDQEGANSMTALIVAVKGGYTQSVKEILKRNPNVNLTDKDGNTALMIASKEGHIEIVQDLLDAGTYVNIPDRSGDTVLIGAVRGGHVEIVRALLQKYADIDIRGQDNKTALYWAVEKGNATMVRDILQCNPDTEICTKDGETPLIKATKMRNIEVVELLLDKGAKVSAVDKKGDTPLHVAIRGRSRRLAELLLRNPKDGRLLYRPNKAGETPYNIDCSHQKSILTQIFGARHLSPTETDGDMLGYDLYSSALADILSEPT

ARMS R1-11 K180A [2] = molecular target: T2, ARMS R1-11 K180A (rat, UniProt Q9EQG6 1-365, K180A); experiment: as above; conditions: both partners purified
T2 construct: ARMS (Kidins220), rat, UniProt Q9EQG6, residues 1-365 (R1-11) with K180A; also called ARMS K180A; source: E. coli BL21 (DE3), purified (Ni-NTA, size-exclusion chromatography)
T2 sequence (looked up): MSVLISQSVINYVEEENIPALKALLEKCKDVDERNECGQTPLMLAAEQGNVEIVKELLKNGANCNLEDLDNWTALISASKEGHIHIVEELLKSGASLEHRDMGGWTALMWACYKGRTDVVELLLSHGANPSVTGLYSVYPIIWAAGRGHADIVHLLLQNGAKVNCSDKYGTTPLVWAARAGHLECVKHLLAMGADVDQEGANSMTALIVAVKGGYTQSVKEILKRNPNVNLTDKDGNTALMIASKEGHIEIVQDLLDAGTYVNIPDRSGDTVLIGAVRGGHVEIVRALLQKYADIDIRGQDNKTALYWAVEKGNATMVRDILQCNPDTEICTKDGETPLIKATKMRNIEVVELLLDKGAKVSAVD

[3] = molecular target: T3, ARMS ankyrin repeats 1–11 (R1-11, residues 1–365) (rat, UniProt Q9EQG6 1-365); experiment: as above; conditions: both partners purified
T3 construct: ARMS (Kidins220), rat, UniProt Q9EQG6, residues 1-365: ankyrin repeats 1-11; also called ARMS R1-11; ARMS R1-11 WT; source: E. coli BL21 (DE3), purified (Ni-NTA, size-exclusion chromatography)
T3 sequence (looked up): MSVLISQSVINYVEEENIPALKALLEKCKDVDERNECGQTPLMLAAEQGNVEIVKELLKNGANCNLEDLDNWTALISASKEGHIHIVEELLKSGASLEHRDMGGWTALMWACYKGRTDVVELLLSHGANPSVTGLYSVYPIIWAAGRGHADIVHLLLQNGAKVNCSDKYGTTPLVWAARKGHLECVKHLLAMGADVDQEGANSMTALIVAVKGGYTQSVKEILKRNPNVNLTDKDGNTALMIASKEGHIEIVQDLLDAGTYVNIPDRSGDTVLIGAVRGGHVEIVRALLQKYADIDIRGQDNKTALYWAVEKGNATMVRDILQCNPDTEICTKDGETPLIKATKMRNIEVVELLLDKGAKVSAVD

ARMS R1-11 K180A [4] = molecular target: T4, ARMS R1-11 K180A (rat, UniProt Q9EQG6 1-365, K180A); experiment: ITC
T4 sequence: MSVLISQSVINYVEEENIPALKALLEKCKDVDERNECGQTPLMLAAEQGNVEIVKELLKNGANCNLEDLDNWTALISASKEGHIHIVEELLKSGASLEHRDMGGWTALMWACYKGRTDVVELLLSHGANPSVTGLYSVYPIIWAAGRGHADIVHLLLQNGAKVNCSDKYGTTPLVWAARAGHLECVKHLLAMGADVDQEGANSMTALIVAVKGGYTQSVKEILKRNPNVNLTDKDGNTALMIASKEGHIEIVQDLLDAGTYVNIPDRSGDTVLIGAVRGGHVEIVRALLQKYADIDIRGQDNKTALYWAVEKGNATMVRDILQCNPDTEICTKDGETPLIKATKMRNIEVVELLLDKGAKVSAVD

B1: full length of the cytoplasmic region of Syt4 (CD, residues 41–425) (domain or fragment, human, UniProt Q9H2B2-1 41-425, looked up)
chain: KSSKSNKTPPYKFVHVLKGVDIYPENLNSKKKFGADDKNEVKNKPAVPKNSLHLDLEKRDLNGNFPKTNLKPGSPSDLENATPKLFLEGEKESVSPESLKSSTSLTSEEKQEKLGTLFFSLEYNFERKAFVVNIKEARGLPAMDEQSMTSDPYIKMTILPEKKHKVKTRVLRKTLDPAFDETFTFYGIPYTQIQELALHFTILSFDRFSRDDIIGEVLIPLSGIELSEGKMLMNREIIKRNVRKSSGRGELLISLCYQSTTNTLTVVVLKARHLPKSDVSGLSDPYVKVNLYHAKKRISKKKTHVKKCTPNAVFNELFVFDIPCEGLEDISVEFLVLDSERGSRNEVIGQLVLGAAAEGTGGEHWKEICDYPRRQIAKWHVLCDG
notes: also called Synaptotagmin-4 CD; source: E. coli BL21 (DE3), purified (Ni-NTA, size-exclusion chromatography)
- Kd [1]: ~17 µM

B2: Syt4 132–425 (domain or fragment, human, UniProt Q9H2B2-1 132-425, looked up)
chain: ESVSPESLKSSTSLTSEEKQEKLGTLFFSLEYNFERKAFVVNIKEARGLPAMDEQSMTSDPYIKMTILPEKKHKVKTRVLRKTLDPAFDETFTFYGIPYTQIQELALHFTILSFDRFSRDDIIGEVLIPLSGIELSEGKMLMNREIIKRNVRKSSGRGELLISLCYQSTTNTLTVVVLKARHLPKSDVSGLSDPYVKVNLYHAKKRISKKKTHVKKCTPNAVFNELFVFDIPCEGLEDISVEFLVLDSERGSRNEVIGQLVLGAAAEGTGGEHWKEICDYPRRQIAKWHVLCDG
notes: source: E. coli BL21 (DE3), purified (Ni-NTA, size-exclusion chromatography)
- binding result (ARMS R1-11 K180A [2]): binds
- binding result [3]: binds
- Kd (ARMS R1-11 K180A [4]): 11 µM

B3: Syt4 132–425 Q186A (domain or fragment, human, UniProt Q9H2B2-1 132-425, looked up)
chain: ESVSPESLKSSTSLTSEEKQEKLGTLFFSLEYNFERKAFVVNIKEARGLPAMDEASMTSDPYIKMTILPEKKHKVKTRVLRKTLDPAFDETFTFYGIPYTQIQELALHFTILSFDRFSRDDIIGEVLIPLSGIELSEGKMLMNREIIKRNVRKSSGRGELLISLCYQSTTNTLTVVVLKARHLPKSDVSGLSDPYVKVNLYHAKKRISKKKTHVKKCTPNAVFNELFVFDIPCEGLEDISVEFLVLDSERGSRNEVIGQLVLGAAAEGTGGEHWKEICDYPRRQIAKWHVLCDG
notes: also called Syt4 Q186A; source: E. coli BL21 (DE3), purified (Ni-NTA, size-exclusion chromatography)
- binding result [3]: binds

B4: Syt4 C2AB (residues 151–425) (domain or fragment, human, UniProt Q9H2B2-1 151-425, looked up)
chain: QEKLGTLFFSLEYNFERKAFVVNIKEARGLPAMDEQSMTSDPYIKMTILPEKKHKVKTRVLRKTLDPAFDETFTFYGIPYTQIQELALHFTILSFDRFSRDDIIGEVLIPLSGIELSEGKMLMNREIIKRNVRKSSGRGELLISLCYQSTTNTLTVVVLKARHLPKSDVSGLSDPYVKVNLYHAKKRISKKKTHVKKCTPNAVFNELFVFDIPCEGLEDISVEFLVLDSERGSRNEVIGQLVLGAAAEGTGGEHWKEICDYPRRQIAKWHVLCDG
notes: also called Syt4 CAB; source: E. coli BL21 (DE3), purified (Ni-NTA, size-exclusion chromatography)
- Kd [3]: ~7 µM

B5: Syt4 132–425 K284A (domain or fragment, human, UniProt Q9H2B2-1 132-425, looked up)
chain: ESVSPESLKSSTSLTSEEKQEKLGTLFFSLEYNFERKAFVVNIKEARGLPAMDEQSMTSDPYIKMTILPEKKHKVKTRVLRKTLDPAFDETFTFYGIPYTQIQELALHFTILSFDRFSRDDIIGEVLIPLSGIELSEGKMLMNREIIKRNVRASSGRGELLISLCYQSTTNTLTVVVLKARHLPKSDVSGLSDPYVKVNLYHAKKRISKKKTHVKKCTPNAVFNELFVFDIPCEGLEDISVEFLVLDSERGSRNEVIGQLVLGAAAEGTGGEHWKEICDYPRRQIAKWHVLCDG
notes: also called Syt4 K284A variant; source: E. coli BL21 (DE3), purified (Ni-NTA, size-exclusion chromatography)
- binding result [3]: binds
